# In paper PMC8627827 (Biomacromolecules, 2021):
# Experiment: Subcutaneous pharmacokinetics in streptozotocin-induced diabetic rats
# Parameters: species or system Male Sprague Dawley rats
# Conditions: rat, in vivo, sc, 10 U/kg
substance,measurement,value
"insulin-PEG20k: insulin covalently modified with 20 kDa mPEG via insulin-BCN, long-acting control",Time to peak (serum insulin),7 ± 1 h
